For the assay, the target named is human melanocortin 4 receptor (human) (UniProt P32245). Briefly: cell-based or functional assay.
Sequence of human melanocortin 4 receptor (human) (P32245 whole entry): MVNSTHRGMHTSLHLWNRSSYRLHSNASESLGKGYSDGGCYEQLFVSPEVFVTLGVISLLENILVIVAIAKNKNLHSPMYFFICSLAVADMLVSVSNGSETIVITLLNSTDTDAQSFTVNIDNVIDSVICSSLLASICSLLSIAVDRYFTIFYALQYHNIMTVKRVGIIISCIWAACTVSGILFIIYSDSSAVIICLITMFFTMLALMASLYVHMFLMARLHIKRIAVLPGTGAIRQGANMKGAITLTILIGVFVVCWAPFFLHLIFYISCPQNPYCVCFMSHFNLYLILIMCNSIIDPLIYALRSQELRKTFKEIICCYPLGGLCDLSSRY

“AgRP (from UniProt O00253 87-132) (ligand)” registered a pA2 (Schild analysis, agonist NDP-MSH, cAMP) of 8.7.

The values are drawn from patent publication US20210179666A1, “CYCLIC PEPTIDES AND METHODS OF USE THEREOF” (Regents of the University of Minnesota, priority 2019, published 2021).
